This note sets out measurements from PMC6991139 (ACS nano, 2019).

In data set [1] the target is PP7-PP7 single-chain coat protein dimer particle (PP7 virus (Leviviridae)) (UniProt P03630). The experiment in a line: cryo-EM structure.
Data set [2] concerns the target PP7-ZZ particle (ZZ-domains fused to the C-terminus of the PP7 CP) (PP7 virus (Leviviridae)). The experiment in a line: SEC + other: dynamic light scattering + other: TEM.
Data set [3] deals with ZZ-PP7 particle (ZZ-domains added to the N-terminus of the PP7 CP) (PP7 virus (Leviviridae)). Description: cryo-EM structure.
Data set [4] concerns the molecule itself. The experiment in a line: SEC + other: dynamic light scattering + other: TEM.

What is called stoichiometry N is a count of units in the complex or per binding partner.

Regarding “PP7-PP7 single-chain coat protein dimer particle (from UniProt P03630 1-128; P03630 1-128)”, the stoichiometry N in data set [1] was determined as 120 copies.

As for “PP7-ZZ particle (ZZ-domains fused to the C-terminus of the PP7 CP)”, the stoichiometry N in data set [2] amounted to 180 per capsid.

In data set [3], “ZZ-PP7 particle (ZZ-domains added to the N-terminus of the PP7 CP)” showed a stoichiometry N of 180 per capsid.

B1: wild-type PP7 virus-like particle (PP7 coat protein) (natural protein)
chain: MSKTIVLSVGEATRTLTEIQSTADRQIFEEKVGPLVGRLRLTASLRQNGAKTAYRVNLKLDQADVVDCSTSVCGELPKVRYTQVWSHDVTIVANSTEASRKSLYDLTKSLVATSQVEDLVVNLVPLGR
As to B1, the binding result in data set [4] was “binds”.
